In paper PMC6640702, “IgG Charge: Practical and Biological Implications” (Antibodies, 2019):
Values belong to the molecule of their own block, whether it stands above or below them.

Assays:
[1] = biological target: Fc fragment of human IgG4 (IdeS-cleaved; identical for IgG4 and IgG4Pro) (human); assay: AUC; sedimentation velocity, absorbance 280 nm, 20 °C, 40,000 rpm, three concentrations in 1:3 dilutions from 0.5 mg/mL (0.5, 0.167, 0.056 mg/mL); Figure 2 in 10 mM sodium acetate, 50 mM NaCl, pH 5.0; oligomer told from sw against ~50 kDa
[2] = biological target: the molecule itself; assay: as above

stoichiometry N [1]: 2
Molecule: Fc fragment of human IgG4 (IdeS-cleaved; identical for IgG4 and IgG4Pro) (domain or fragment)

B1: Fc fragment of human IgG2 (IdeS-cleaved) (domain or fragment)
chain: GPSVFLFPPKPKDTLMISRTPEVTCVVVDVSHEDPEVQFNWYVDGVEVHNAKTKPREEQFNSTFRVVSVLTVVHQDWLNGKEYKCKVSNKGLPAPIEKTISKTKGQPREPQVYTLPPSREEMTKNQVSLTCLVKGFYPSDIAVEWESNGQPENNYKTTPPMLDSDGSFFLYSKLTVDKSRWQQGNVFSCSVMHEALHNHYTQKSLSLSPGK
modifications: asparagine (N)-linked glycoforms G0F, G1F, G2F (told of the intact IgGs)
stoichiometry N [2]: 2
